According to patent US8299028B2, “Chimeric peptide antagonist for GPCR135 or GPCR142” (Janssen Pharmaceutica NV, priority 2007, dated 2012):
pEC50: −log10 of the molar value.

Columns and labels:
human GPCR142 [1] = target: T1, human GPCR142 (Homo sapiens, UniProt Q8TDU9); test: Radioligand binding assay, 125I-R3/I5 tracer, COS-7 cells expressing GPCR142; set-up: expressed in transfected cells; host or cells: COS-7
Excerpt: (§1) COS-7 cells in 24-well tissue culture plates transiently expressing GPCR135, GPCR142 or LGR7 were used in radioligand binding assays as described by Liu et al., 2005a, J. Biol. Chem., 280:292-300. ^125I-Relaxin-3/INSL5 (^125I-R3/I5), a radiolabeled chimeric peptide with the human relaxin-3 B-chain and the human INSL5 A-chain (Liu et al., 2005b), was used at a final concentration of 50 pM as the tracer to characterize the binding properties of all truncated relaxin-3 peptides for GPCR135 and GPCR142. ^125I-relaxin-2 (PerkinElmer Biosciences, Boston) was used at a final concentration of 50 pM to characterize the binding properties of the truncated peptides for the relaxin receptor (LGR7). The results were analyzed by GraphPad Prism 4.0 software (Graphpad, San Diego). The IC50 values, which are the ligand concentrations that inhibited 50% of the maximum specific binding, were then calculated.

human GPCR142 [2] = target: T1, human GPCR142; test: Agonist assay, inhibition of forskolin-induced β-gal expression in SK-N-MC/CRE-β-gal cells; assay type: cell-based; set-up: expressed in transfected cells; details: human GPCR142 agonist response, mean ± SEM; NA = no agonist activity observed
Description: FIG. 1 provides a characterization of mutant relaxin-3 peptides as ligands for human GPCR135, GPCR142, and LGR7. The truncated peptides were tested for their GPCR135 and GPCR142 agonist activity using SK-N-MC/CRE-β-gal cells expressing either human GPCR135 (A) or GPCR142 (B). Agonists for GPCR135 or GPCR142 inhibit forskolin induced β-galactosidase (β-gal) expression. The LGR7 agonist activity of the truncated peptides was tested using SK-N-MC/CRE-β-gal cells expressing Gαs-linked human LGR7 (C). Human relaxin-3 was used as positive control in both cases. β-gal expression was measured by colorimetric assay using CPRG as the substrate and reading the absorbance at 570 nm.
All peptides were tested for their GPCR135, GPCR142, and LGR7 agonist activities in SK-N-MC/CRE cells expressing the relevant receptors as described by Liu et al., 2005b. […] An increase in cAMP concentration in these cells is associated with increased β-gal expression, which can be measured using Chlorophenol Red-β-D-Galactopyranoside (CRGP) as a substrate and reading the optical absorbance at 570 nm. […] The results were analyzed using GraphPad Prism 4.0 software. […] The agonism and antagonism of peptides for rat LGR7 was assayed using a cAMP luminescence assay. […] The cAMP in the cells was measured with a cAMP detection kit (DiscoveRx HitHunter, Cat. #90-0041) according to the manufacturer's protocol. […]

human LGR7 = target: T2, human LGR7 (Homo sapiens, UniProt Q9HBX9); test: Radioligand binding assay, 125I-relaxin-2 tracer, COS-7 cells expressing LGR7; set-up: expressed in transfected cells
T2 sequence (Q9HBX9 1-757): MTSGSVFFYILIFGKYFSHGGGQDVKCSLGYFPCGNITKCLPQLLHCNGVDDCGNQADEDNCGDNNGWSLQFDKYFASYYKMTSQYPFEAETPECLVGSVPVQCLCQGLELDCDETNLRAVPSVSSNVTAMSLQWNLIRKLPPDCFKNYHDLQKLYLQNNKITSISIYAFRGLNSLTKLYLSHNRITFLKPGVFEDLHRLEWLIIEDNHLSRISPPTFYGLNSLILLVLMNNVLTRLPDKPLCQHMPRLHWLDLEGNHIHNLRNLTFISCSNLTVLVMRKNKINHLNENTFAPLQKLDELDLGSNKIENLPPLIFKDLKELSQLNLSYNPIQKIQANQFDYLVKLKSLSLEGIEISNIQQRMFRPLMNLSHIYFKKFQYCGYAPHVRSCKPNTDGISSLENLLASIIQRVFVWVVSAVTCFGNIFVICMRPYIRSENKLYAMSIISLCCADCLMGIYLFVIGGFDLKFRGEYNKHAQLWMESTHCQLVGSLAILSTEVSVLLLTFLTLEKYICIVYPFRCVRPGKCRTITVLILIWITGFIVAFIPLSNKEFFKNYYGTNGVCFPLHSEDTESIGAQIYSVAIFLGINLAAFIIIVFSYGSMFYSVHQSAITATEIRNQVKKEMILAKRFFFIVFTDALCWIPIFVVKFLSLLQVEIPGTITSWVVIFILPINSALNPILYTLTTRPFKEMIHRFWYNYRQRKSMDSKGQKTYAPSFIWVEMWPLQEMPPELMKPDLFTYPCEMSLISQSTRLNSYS
Excerpt: as §1

T1 sequence (Q8TDU9 whole entry, the tested form may be a part): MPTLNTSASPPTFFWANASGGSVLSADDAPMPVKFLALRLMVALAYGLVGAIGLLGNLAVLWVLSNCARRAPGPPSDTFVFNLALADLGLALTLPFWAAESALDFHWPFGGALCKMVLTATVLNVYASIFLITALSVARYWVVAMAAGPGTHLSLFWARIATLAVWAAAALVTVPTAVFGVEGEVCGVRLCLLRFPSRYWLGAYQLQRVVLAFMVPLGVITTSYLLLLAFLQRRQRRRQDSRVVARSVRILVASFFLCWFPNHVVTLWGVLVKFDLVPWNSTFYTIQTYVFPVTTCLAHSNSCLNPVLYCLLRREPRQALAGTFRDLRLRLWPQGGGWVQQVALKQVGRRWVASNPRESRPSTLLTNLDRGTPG

R3(BΔ23-27)R: Relaxin-3 mutant: B-chain SEQ ID NO:15 (Gly23-Trp27 deleted plus C-terminal Arg), relaxin-3 A-chain SEQ ID NO:13
affinity of human GPCR142 (human GPCR142 [1]): high affinities
pEC50 (human GPCR142 [2]): < 6.00
affinity of human LGR7 (human LGR7): low affinity
